B1: A-Ye-20 (Fc fusion)
chain: QVQLQESGGGLVQAGGSLRLSCAASGFTFDDYAIGWFRQAPGKEREGVLCISSSGGSTYYADSVKGRFTISRDNAKNTVYLQMTNLKPEDTAVYLCGAPRDCSYYTSDDYWGQGTQVTVSSTHTCPPCPAPEAAGGPSVFLFPPKPKDTLMISRTPEVTCVVVDVSHEDPEVKFNWYVDGVEVHNAKTKPREEQYNSTYRVVSVLTVLHQDWLNGKEYKCKVSNKALPAPIEKTISKAKGQPREPQVYTLPPSREEMTKNQVSLTCLVKGFYPSDIAVEWESNGQPENNYKTTPPVLDSDGSFFLYSKLTVDKSRWQQGNVFSCSVMHEALHNHYTQKSLSLSPG
B2: A-Ye-25 (Fc fusion)
chain: QVQLQESGGGLVQVGGSLRLSCAASGFTFDDYAIGWFRQAPGKEREGVLCISSSGGSTYYADSLKGRFTISRDNAKNTVYLQMTNLKPEDTAVYLCGAPRDCSLYTGDDYWGQGTQVTVSSTHTCPPCPAPEAAGGPSVFLFPPKPKDTLMISRTPEVTCVVVDVSHEDPEVKFNWYVDGVEVHNAKTKPREEQYNSTYRVVSVLTVLHQDWLNGKEYKCKVSNKALPAPIEKTISKAKGQPREPQVYTLPPSREEMTKNQVSLTCLVKGFYPSDIAVEWESNGQPENNYKTTPPVLDSDGSFFLYSKLTVDKSRWQQGNVFSCSVMHEALHNHYTQKSLSLSPG
B3: A-Ye-27 (Fc fusion)
chain: QVQLQESGGGLVQPGGSLRLSCAASGFSLGLYAIGWFRQAPGKEREWVSCIMSSDSSAYYADSVKGRFTVSRDNAKNTVYLQMTNLKPEDTAVYLCGAPRDCSRYSSDDYWGQGTQVTVSSTHTCPPCPAPEAAGGPSVFLFPPKPKDTLMISRTPEVTCVVVDVSHEDPEVKFNWYVDGVEVHNAKTKPREEQYNSTYRVVSVLTVLHQDWLNGKEYKCKVSNKALPAPIEKTISKAKGQPREPQVYTLPPSREEMTKNQVSLTCLVKGFYPSDIAVEWESNGQPENNYKTTPPVLDSDGSFFLYSKLTVDKSRWQQGNVFSCSVMHEALHNHYTQKSLSLSPG
B4: A-Ye-14 (Fc fusion)
chain: QVQLQESGGGLVQPGGSLRLSCAASGFSLGLYAIGWFRQAPGKEREWVSCIMSSDSSAYYADSVKGRFTVSRDNAKNTVYLQMNRLKPEDTAVYYCAAPQSDCFHYSENDYWGQGTQVTVSSTHTCPPCPAPEAAGGPSVFLFPPKPKDTLMISRTPEVTCVVVDVSHEDPEVKFNWYVDGVEVHNAKTKPREEQYNSTYRVVSVLTVLHQDWLNGKEYKCKVSNKALPAPIEKTISKAKGQPREPQVYTLPPSREEMTKNQVSLTCLVKGFYPSDIAVEWESNGQPENNYKTTPPVLDSDGSFFLYSKLTVDKSRWQQGNVFSCSVMHEALHNHYTQKSLSLSPG
B5: A-Ye-21 (Fc fusion)
chain: QVQLQESGGGLVQPGGSLRLSCAASGFSLDYYAIGWFRQAPGKEREWVSCIMSSDSSAYYADSVKGRFTISRDNAKNLVYLRMNSLKPEDTAVYYCTAPRSDCFHYGENDYWGQGTQVTVSSTHTCPPCPAPEAAGGPSVFLFPPKPKDTLMISRTPEVTCVVVDVSHEDPEVKFNWYVDGVEVHNAKTKPREEQYNSTYRVVSVLTVLHQDWLNGKEYKCKVSNKALPAPIEKTISKAKGQPREPQVYTLPPSREEMTKNQVSLTCLVKGFYPSDIAVEWESNGQPENNYKTTPPVLDSDGSFFLYSKLTVDKSRWQQGNVFSCSVMHEALHNHYTQKSLSLSPG
B6: A-Ye-19 (Fc fusion)
chain: QVQLQESGGGLVQAGGSLRLSCAASGFSLGLYAIGWFRQAPGKEREWVSCIMSSDSSAYYADSVKGRFTVSRDNAKNTVYLQMNRLKPEDTAVYYCAAPQSDCFHYSENDYWGQGTQVTVSSTHTCPPCPAPEAAGGPSVFLFPPKPKDTLMISRTPEVTCVVVDVSHEDPEVKFNWYVDGVEVHNAKTKPREEQYNSTYRVVSVLTVLHQDWLNGKEYKCKVSNKALPAPIEKTISKAKGQPREPQVYTLPPSREEMTKNQVSLTCLVKGFYPSDIAVEWESNGQPENNYKTTPPVLDSDGSFFLYSKLTVDKSRWQQGNVFSCSVMHEALHNHYTQKSLSLSPG

The target of the assay is T1, 4-1BB antigen (human, UniProt Q07011 24-186, limits assumed).
T1 construct: also called human 4-1BB antigen; human 4-1BB protein
T1 sequence (Q07011 24-186 limits assumed): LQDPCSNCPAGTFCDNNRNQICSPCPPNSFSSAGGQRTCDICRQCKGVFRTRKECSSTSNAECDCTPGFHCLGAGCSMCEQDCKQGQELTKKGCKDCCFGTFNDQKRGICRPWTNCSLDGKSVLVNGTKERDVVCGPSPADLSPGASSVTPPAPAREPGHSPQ
Kind of assay: BLI (ForteBio), antibody on AHQ sensor, 100 nM 4-1BB antigen, 1:1 model. Here is the method:
ForteBio affinity determination was performed according to the existing method (Estep, P et al., Solution-based measurement of high-throughput antibody-antigen affinity and epitope classification, MAbs, 2013.5(2):p. 270-8). Briefly, the sensor was equilibrated offline for 30 min in the assay buffer, then the baseline was established by detection online for 60 s, and the purified antibody obtained as described above was loaded onto the AHQ sensor online. Then, the sensor was put into 100 nM 4-1BB antigen to act for 5 minutes, and the sensor was transferred to PBS and dissociated for 5 minutes. Analysis of kinetics was performed using a 1:1 binding model.
On the technique in general: In BLI a coated tip is dipped into the sample, and binding shifts an interference pattern.
In general, Kd refers to the free concentration of one partner at which half of the binding sites on the other are occupied at equilibrium, for simple one-to-one binding. In turn, B1 came in with a Kd of 26.8 nM.

B2: the Kd is 13.5 nM.

Molecule B3 showed an equilibrium dissociation constant (Kd) of 7.55 nM.

Regarding B4, binding was put at a Kd of 14.5 nM.

Molecule B5 came in with a Kd of 23 nM.

B6 registered a dissociation constant (Kd) of 13 nM.

The values are drawn from US20230357422A1 (published 2023).
